According to IntAct's records for PubMed 29892012:

B1: Inositol polyphosphate 5-phosphatase K (Homo sapiens), Q9BT40 (parent)
chain: MSSRKLSGPKGRRLSIHVVTWNVASAAPPLDLSDLLQLNNRNLNLDIYVIGLQELNSGIISLLSDAAFNDSWSSFLMDVLSPLSFIKVSHVRMQGILLLVFAKYQHLPYIQILSTKSTPTGLFGYWGNKGGVNICLKLYGYYVSIINCHLPPHISNNYQRLEHFDRILEMQNCEGRDIPNILDHDLIIWFGDMNFRIEDFGLHFVRESIKNRCYGGLWEKDQLSIAKKHDPLLREFQEGRLLFPPTYKFDRNSNDYDTSEKKRKPAWTDRILWRLKRQPCAGPDTPIPPASHFSLSLRGYSSHMTYGISDHKPVSGTFDLELKPLVSAPLIVLMPEDLWTVENDMMVSYSSTSDFPSSPWDWIGLYKVGLRDVNDYVSYAWVGDSKVSCSDNLNQVYIDISNIPTTEDEFLLCYYSNSLRSVVGISRPFQIPPGSLREDPLGEAQPQI
B2: Genetic suppressor element 1 (Homo sapiens), Q14687 (parent)
chain: MKGMSHEPKSPSLGMLSTATRTTATVNPLTPSPLNGALVPSGSPATSSALSAQAAPSSSFAAALRKLAKQAEEPRGSSLSSESSPVSSPATNHSSPASTPKRVPMGPIIVPPGGHSVPSTPPVVTIAPTKTVNGVWRSESRQDAGSRSSSGGRERLIVEPPLPQEKAGGPAIPSHLLSTPYPFGLSPSSVVQDSRFPPLNLQRPVHHVVPPSTVTEDYLRSFRPYHTTDDLRMSSLPPLGLDPATAAAYYHPSYLAPHPFPHPAFRMDDSYCLSALRSPFYPIPTPGSLPPLHPSAMHLHLSGVRYPPELSHSSLAALHSERMSGLSAERLQMDEELRREREREREREREREADREREKEREREREKEREQEKEREREKERERELERQREQRAREKELLAAKALEPSFLPVAELHGLRGHATEERGKPSEQLTPTRAEKLKDAGLQAPKPVQHPLHPVPTPHHTVPSLISNHGIFSLPSSSAATALLIQRTNEEEKWLARQRRLRQEKEDRQSQVSEFRQQVLEQHLDMGRPPVPAEAEHRPESTTRPGPNRHEPGGRDPPQHFGGPPPLISPKPQLHAAPTALWNPVSLMDNTLETRRAESHSLHSHPAAFEPSRQAAVPLVKVERVFCPEKAEEGPRKREPAPLDKYQPPPPPPREGGSLEHQPFLPGPGPFLAELEKSTQTILGQQRASLPQAATFGELSGPLKPGSPYRPPVPRAPDPAYIYDEFLQQRRRLVSKLDLEERRRREAQEKGYYYDLDDSYDESDEEEVRAHLRCVAEQPPLKLDTSSEKLEFLQLFGLTTQQQKEELVAQKRRKRRRMLRERSPSPPTIQSKRQTPSPRLALSTRYSPDEMNNSPNFEEKKKFLTIFNLTHISAEKRKDKERLVEMLRAMKQKALSAAVADSLTNSPRDSPAVSLSEPATQQASLDVEKPVGVAASLSDIPKAAEPGKLEQVRPQELSRVQELAPASGEKARLSEAPGGKKSLSMLHYIRGAAPKDIPVPLSHSTNGKSKPWEPFVAEEFAHQFHESVLQSTQKALQKHKGSVAVLSAEQNHKVDTSVHYNIPELQSSSRAPPPQHNGQQEPPTARKGPPTQELDRDSEEEEEEDDEDGEDEEEVPKRKWQGIEAVFEAYQEHIEEQNLERQVLQTQCRRLEARHYSLSLTAEQLSHSVAELRSQKQKMVSERERLQAELDHLRKCLALPAMHWPRGYLKGYPR
partner: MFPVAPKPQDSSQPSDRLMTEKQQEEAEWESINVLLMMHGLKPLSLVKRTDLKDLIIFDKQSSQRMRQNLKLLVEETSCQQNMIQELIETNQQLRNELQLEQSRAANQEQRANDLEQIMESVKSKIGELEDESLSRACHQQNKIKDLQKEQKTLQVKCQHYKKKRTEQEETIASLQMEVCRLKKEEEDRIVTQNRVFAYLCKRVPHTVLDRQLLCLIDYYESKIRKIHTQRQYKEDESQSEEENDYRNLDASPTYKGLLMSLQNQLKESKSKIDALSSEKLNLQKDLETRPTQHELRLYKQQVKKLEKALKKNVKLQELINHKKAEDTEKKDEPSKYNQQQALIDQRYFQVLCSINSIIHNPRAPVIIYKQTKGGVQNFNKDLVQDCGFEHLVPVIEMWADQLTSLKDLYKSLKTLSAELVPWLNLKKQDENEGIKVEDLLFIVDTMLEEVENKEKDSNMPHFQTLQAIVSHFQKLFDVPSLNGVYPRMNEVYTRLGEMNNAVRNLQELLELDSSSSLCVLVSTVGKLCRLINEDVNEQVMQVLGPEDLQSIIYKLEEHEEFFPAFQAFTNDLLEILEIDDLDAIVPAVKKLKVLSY
B3: Genetic suppressor element 1 (Homo sapiens), Q14687 (parent)
chain: B2 chain
partner: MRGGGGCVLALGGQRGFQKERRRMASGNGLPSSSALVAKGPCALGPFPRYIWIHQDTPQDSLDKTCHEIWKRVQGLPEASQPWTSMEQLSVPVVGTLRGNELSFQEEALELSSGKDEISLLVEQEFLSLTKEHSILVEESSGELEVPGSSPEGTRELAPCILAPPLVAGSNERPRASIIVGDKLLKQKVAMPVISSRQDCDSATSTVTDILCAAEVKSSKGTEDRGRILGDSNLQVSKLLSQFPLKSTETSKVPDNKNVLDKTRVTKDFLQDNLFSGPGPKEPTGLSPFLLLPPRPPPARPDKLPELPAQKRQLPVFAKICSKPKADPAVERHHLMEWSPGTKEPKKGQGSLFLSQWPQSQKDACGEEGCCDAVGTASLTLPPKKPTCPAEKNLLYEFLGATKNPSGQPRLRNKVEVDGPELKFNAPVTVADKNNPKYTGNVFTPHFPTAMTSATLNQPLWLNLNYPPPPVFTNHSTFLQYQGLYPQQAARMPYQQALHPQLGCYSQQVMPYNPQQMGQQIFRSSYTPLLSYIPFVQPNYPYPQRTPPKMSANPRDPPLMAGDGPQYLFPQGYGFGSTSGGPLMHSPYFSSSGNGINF
B4: Synaptotagmin-16 (Homo sapiens), Q17RD7 (parent)
chain: MVLAMASQDVQNFFQPFSSWISRVYEALQQAGDMLSASLVNISKQDSKLSDKLDQDLDNIQIQETYFEDEEQDNDWSQEDANSLFLEVDHFSCCNSDLQDSAQNSSPSLSQHAKDSCSTMSQWPNWASDDRKLPHVLSSIAEEEHHLEKQRSGLQHGFDSQLPGTLETVNGKKQVNSFGDDEELSTSSDSDEEVIKQFEISVSRSQSFRSVTSEKGKQTGLEQKPKFSRSLLTHGEDGTEVSACEDLDGASQRRYSENLSYGEDDHIPAHSQSPCERGDAKHHGTSHQESSVVQSLRRQSTEGSLEMETAFNSRGFEDSYATDSSSMWSPEEQDRTNLQVPSGVSEPISKCGDLDVIFEYRAASQKLTVTIVRAQGLPDKDRSGVNSWQVHVVLLPGKKHRGRTNIQRGPNPVFREKVTFAKLEPRDVAACAVRFRLYAARKMTRERMMGEKLFYLSHLHPEGEMKVTLVLEPRSNISSGGSPLSPSAVSHSDSTSSTQSLSHGGAPELLVGLSYNATTGRLSVEMIKGSHFRNLAVNRAPDTYGKLFLLNSVGQEMSRCKTSIRRGQPNPVYKETFVFQVALFQLSDVTLMISVYNRRTMKRKEMIGWIALGQNSSGEEEQDHWEEMKETKGQQICRWHTLLES
B5: Genetic suppressor element 1 (Homo sapiens), Q14687 (parent)
chain: B2 chain
partner: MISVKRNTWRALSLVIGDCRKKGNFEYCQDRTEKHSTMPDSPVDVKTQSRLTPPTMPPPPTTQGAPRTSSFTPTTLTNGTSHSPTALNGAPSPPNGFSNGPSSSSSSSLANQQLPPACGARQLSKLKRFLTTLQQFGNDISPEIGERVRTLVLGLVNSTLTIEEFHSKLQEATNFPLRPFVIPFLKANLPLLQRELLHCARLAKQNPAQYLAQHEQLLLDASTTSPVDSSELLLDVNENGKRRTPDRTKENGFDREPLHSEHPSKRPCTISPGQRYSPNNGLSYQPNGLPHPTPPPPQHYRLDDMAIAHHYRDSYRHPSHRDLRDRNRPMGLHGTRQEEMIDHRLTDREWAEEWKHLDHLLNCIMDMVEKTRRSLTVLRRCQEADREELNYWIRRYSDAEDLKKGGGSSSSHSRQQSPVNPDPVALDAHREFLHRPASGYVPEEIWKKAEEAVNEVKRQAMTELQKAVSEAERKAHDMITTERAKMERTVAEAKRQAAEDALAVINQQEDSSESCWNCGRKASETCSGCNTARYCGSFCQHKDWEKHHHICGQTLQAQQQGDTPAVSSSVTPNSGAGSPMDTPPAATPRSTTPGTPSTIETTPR
B6: Exportin-6 (Homo sapiens), Q96QU8 (parent)
chain: MASEEASLRALESLMTEFFHDCTTNERKREIEELLNNFAQQIGAWRFCLYFLSSTRNDYVMMYSLTVFENLINKMWLGVPSQDKMEIRSCLPKLLLAHHKTLPYFIRNKLCKVIVDIGRQDWPMFYHDFFTNILQLIQSPVTTPLGLIMLKTTSEELACPREDLSVARKEELRKLLLDQVQTVLGLLTGILETVWDKHSVTAATPPPSPTSGESGDLLSNLLQSPSSAKLLNQPIPILDVESEYICSLALECLAHLFSWIPLSASITPSLLTTIFHFARFGCDIRARKMASVNGSSQNCVSGQERGRLGVLAMSCINELMSKNCVPMEFEEYLLRMFQQTFYLLQKITKDNNAHTVKSRLEELDESYIEKFTDFLRLFVSVHLRRIESYSQFPVVEFLTLLFKYTFHQPTHEGYFSCLDIWTLFLDYLTSKIKSRLGDKEAVLNRYEDALVLLLTEVLNRIQFRYNQAQLEELDDETLDDDQQTEWQRYLRQSLEVVAKVMELLPTHAFSTLFPVLQDNLEVYLGLQQFIVTSGSGHRLNITAENDCRRLHCSLRDLSSLLQAVGRLAEYFIGDVFAARFNDALTVVERLVKVTLYGSQIKLYNIETAVPSVLKPDLIDVHAQSLAALQAYSHWLAQYCSEVHRQNTQQFVTLISTTMDAITPLISTKVQDKLLLSACHLLVSLATTVRPVFLISIPAVQKVFNRITDASALRLVDKAQVLVCRALSNILLLPWPNLPENEQQWPVRSINHASLISALSRDYRNLKPSAVAPQRKMPLDDTKLIIHQTLSVLEDIVENISGESTKSRQICYQSLQESVQVSLALFPAFIHQSDVTDEMLSFFLTLFRGLRVQMGVPFTEQIIQTFLNMFTREQLAESILHEGSTGCRVVEKFLKILQVVVQEPGQVFKPFLPSIIALCMEQVYPIIAERPSPDVKAELFELLFRTLHHNWRYFFKSTVLASVQRGIAEEQMENEPQFSAIMQAFGQSFLQPDIHLFKQNLFYLETLNTKQKLYHKKIFRTAMLFQFVNVLLQVLVHKSHDLLQEEIGIAIYNMASVDFDGFFAAFLPEFLTSCDGVDANQKSVLGRNFKMDRDLPSFTQNVHRLVNDLRYYRLCNDSLPPGTVKL
B7: Genetic suppressor element 1 (Homo sapiens), Q14687 (parent)
chain: B2 chain

Variants of: B1
Settings: with ar6p1_human ARL6IP1, Q15041
ar6p1_human ARL6IP1, Q15041, sequence (Q15041 whole entry): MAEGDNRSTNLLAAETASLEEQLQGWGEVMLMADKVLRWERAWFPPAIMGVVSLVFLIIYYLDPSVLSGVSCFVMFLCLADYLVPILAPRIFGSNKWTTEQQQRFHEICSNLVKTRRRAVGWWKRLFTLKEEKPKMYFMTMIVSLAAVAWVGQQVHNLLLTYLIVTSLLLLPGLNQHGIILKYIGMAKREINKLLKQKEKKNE

Variant	effect of a mutation on the interaction
MSSRKLSGPKGRRLSIHVVTWNVASAAPPLDLSDLLQLNNRNLNLDIYVIGLQELNSGIISLLSDAAFNDSWSSFLMDVLSPLSFIKVSHVRMQGILLLVFAKYQHLPYIQILSTKSTPTGLFGYWGNKGGVNICLKLYGYYVSIINCHLPPHISNNYQRLEHFDRILEMQNCEGRDIPNILDHDLIIWFGDMNFRIEDFGLHFVRESIKNRCYGGLWEKDQLSIAKKHDPLLREFQEGRLLFPPTYKFDRNSNDYDTSEKKRKPAWTDRILWRLKRQPCAGPDTPIPPASHFSLSLRGYSSHMTYGISDHKPVSGTFDLELKPLVSAPLIVLMPEDLWTVENDMMVSYSSTSDFPSSPWDWIGLYKVGLRDVNDYVSYAWVGDSKVSCSDNLNQVYIDISNIPTTEDEFLLCYYSNSLRSVVGISRPFQIPPGSLKEDPLGEAQPQI [R437K]	with no effect

Variants of: B2
Settings: with cep70_human CEP70, Q8NHQ1

Variant	effect of a mutation on the interaction
E368K	with no effect

Variants of: B2
Settings: with cep70_human CEP70, Q8NHQ1
Remark: another data set of the same source

Variant	effect of a mutation on the interaction
R503Q	with no effect

Variants of: B3
Settings: with ca094_human C1orf94, Q6P1W5

Variant	effect of a mutation on the interaction
E368K	with no effect

Variants of: B3
Settings: with ca094_human C1orf94, Q6P1W5
Remark: another data set of the same source

Variant	effect of a mutation on the interaction
R503Q	with no effect

Variants of: B4
Settings: with praf1_human RABAC1, Q9UI14
praf1_human RABAC1, Q9UI14, sequence (Q9UI14 whole entry): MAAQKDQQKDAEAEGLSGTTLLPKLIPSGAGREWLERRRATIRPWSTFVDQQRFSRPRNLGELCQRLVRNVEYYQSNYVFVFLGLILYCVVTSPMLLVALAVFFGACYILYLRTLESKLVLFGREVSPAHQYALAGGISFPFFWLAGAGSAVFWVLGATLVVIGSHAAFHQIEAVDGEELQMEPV

Variant	effect of a mutation on the interaction
R441W	with no effect

Variants of: B4
Settings: with rtn4_human RTN4, Q9NQC3
rtn4_human RTN4, Q9NQC3, sequence (Q9NQC3 whole entry): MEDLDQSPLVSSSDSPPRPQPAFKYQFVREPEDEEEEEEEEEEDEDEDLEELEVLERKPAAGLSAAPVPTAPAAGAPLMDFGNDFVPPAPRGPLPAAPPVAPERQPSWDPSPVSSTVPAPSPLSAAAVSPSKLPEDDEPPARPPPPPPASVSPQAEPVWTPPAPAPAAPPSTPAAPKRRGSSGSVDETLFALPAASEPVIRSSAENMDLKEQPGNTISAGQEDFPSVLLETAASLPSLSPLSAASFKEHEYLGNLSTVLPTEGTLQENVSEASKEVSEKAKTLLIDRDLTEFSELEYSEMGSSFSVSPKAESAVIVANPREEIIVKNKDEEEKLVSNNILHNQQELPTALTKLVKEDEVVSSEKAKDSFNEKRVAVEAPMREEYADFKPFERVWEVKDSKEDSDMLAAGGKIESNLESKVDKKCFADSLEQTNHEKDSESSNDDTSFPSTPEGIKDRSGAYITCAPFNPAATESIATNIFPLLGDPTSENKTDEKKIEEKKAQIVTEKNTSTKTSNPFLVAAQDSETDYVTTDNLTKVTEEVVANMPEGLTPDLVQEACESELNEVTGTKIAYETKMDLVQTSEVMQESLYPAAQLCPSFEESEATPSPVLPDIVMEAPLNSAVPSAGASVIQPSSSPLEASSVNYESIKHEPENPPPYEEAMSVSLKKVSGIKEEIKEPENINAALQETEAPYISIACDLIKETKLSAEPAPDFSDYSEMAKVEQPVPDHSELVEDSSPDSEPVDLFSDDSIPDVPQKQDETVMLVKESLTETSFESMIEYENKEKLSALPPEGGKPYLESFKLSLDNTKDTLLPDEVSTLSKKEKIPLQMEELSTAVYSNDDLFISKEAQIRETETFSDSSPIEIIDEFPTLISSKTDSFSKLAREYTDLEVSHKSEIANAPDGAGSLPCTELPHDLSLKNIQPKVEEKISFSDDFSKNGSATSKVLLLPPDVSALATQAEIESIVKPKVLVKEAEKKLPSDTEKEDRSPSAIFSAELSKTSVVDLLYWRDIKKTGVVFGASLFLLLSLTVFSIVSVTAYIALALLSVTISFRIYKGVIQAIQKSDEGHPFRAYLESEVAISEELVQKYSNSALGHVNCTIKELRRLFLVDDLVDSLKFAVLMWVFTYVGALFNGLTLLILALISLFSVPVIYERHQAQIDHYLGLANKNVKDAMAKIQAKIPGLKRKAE

Variant	effect of a mutation on the interaction
R441W	with no effect

Variants of: B5
Settings: with mtg8_human RUNX1T1, Q06455

Variant	effect of a mutation on the interaction
R503Q	with no effect

Variants of: B5
Settings: with mtg8_human RUNX1T1, Q06455
Remark: another data set of the same source

Variant	effect of a mutation on the interaction
E368K	with no effect

Variants of: B6
Settings: with nup62_human NUP62, P37198
nup62_human NUP62, P37198, sequence (P37198 whole entry): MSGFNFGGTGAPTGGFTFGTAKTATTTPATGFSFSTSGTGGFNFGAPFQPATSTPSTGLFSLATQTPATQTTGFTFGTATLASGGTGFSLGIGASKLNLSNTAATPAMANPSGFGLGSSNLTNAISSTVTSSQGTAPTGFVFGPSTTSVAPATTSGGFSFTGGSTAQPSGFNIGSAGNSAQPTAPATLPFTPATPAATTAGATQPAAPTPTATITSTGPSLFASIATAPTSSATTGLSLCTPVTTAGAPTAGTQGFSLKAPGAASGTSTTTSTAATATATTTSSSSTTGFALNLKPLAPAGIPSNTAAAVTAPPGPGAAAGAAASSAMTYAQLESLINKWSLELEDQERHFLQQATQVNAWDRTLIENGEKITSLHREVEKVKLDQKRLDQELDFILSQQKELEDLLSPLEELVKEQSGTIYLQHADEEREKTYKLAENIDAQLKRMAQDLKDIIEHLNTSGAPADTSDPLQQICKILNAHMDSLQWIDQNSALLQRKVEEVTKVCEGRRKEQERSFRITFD

Variant	effect of a mutation on the interaction
L512V	with no effect

Variants of: B7
Settings: with rbpms_human RBPMS

Variant	effect of a mutation on the interaction
E368K	with no effect

Variants of: B7
Settings: with rcor3_human RCOR3, Q9P2K3

Variant	effect of a mutation on the interaction
E368K	with no effect

Variants of: B7
Settings: with rbpms_human RBPMS
Remark: another data set of the same source

Variant	effect of a mutation on the interaction
R503Q	with no effect

Variants of: B7
Settings: with rcor3_human RCOR3, Q9P2K3
Remark: another data set of the same source

Variant	effect of a mutation on the interaction
R503Q	with no effect
